We go through 17 molecules from patent US20260242478A1 (published 2026).

Assay [1] addresses T1, anti-CD28 scFv (VH - linker 1 - VL) (biotinylated (captured on neutravidin coated plates)). The assay is described as follows: clonal phage ELISA on anti-CD28 scFv; wells pre-incubated with soluble CD28 (competitor).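 Also: crude phage supernatants added to wells preloaded with blocking buffer plus soluble CD28, bound phage read with HRP-linked anti-M13 antibody, comparison wells received blocking buffer only.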 In general terms: In an ELISA, binding on a coated surface is turned into a signal by an enzyme label.
Experimental: (§1) Clonal phage were harvested as crude supernatants and screened via standard enzyme linked immunosorbent assays (ELISAs). […] Prior to the addition of clonal phage, wells were incubated with blocking buffer and CD28 soluble protein or blocking buffer alone. Without washing or aspirating, clonal phage supernatants were then added to the wells and incubated for a short time. Wells were then washed followed by detection of bound phage using a horse radish peroxidase conjugated anti-M13 antibody.
Assay [2] addresses T2, anti-CD28 scFv (VH - linker 1 - VL) (biotinylated (site not stated)). Put plainly: phage ELISA as above, wells pre-incubated with soluble CD28 (competitor).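 Also: ELISA of crude clonal phage supernatants added to wells pre-treated with soluble CD28 in blocking buffer, bound phage read out with HRP-conjugated anti-M13 antibody.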
Assay [3] deals with T2, anti-CD28 scFv (VH - linker 1 - VL). The assay is described as follows: phage ELISA; biotinylated anti-CD28 scFv on neutravidin plate, clonal phage supernatant, anti-M13-HRP detection.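 Also: before phage addition, wells were pretreated with soluble CD28 protein in blocking buffer, or with blocking buffer only as the comparison, then phage were added without washing.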
Assay [4] has as its target T1, anti-CD28 scFv (VH - linker 1 - VL). Put plainly: clonal phage ELISA; biotinylated anti-CD28 scFv on neutravidin plate, phage detected with anti-M13-HRP.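 Also: crude clonal phage supernatants added to wells preincubated with blocking buffer alone or blocking buffer plus soluble CD28 protein.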
Experimental: as §1

Where no end group is shown, it is not given here.

T1 sequence (scFv, as listed by the source): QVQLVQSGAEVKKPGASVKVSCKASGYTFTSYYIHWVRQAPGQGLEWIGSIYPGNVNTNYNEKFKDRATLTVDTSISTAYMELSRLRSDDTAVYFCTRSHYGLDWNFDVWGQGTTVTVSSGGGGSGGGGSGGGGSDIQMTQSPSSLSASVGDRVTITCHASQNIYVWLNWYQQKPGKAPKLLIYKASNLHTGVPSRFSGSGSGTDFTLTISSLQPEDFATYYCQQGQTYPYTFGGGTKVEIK
T2 sequence (scFv, as listed by the source): as above

B1: Phage-236 (peptide)
peptide: MDWCPRDLWNLCFF
Turning to B1, the “CD28 scFv signal in presence of CD28” value in assay [1] was 0.436.

B2: Phage-164 (peptide, not shown: large carriers)
peptide: MDWCPKFLWDLCFA
notes: Clonal phage of the Peptide-9 library
Consider B2, for which, in assay [2], the “CD28 scFv signal in presence of CD28” value was determined as 0.139. The “CD28 scFv signal” value in assay [3] was determined as 1.07.

B3: Phage-170 (peptide, not shown: large carriers)
peptide: MNWCPSDLWHLCFN
modifications: cysteine pairing not given here; also: displayed as fusion to phage pIII, linker and pIII sequence not given here
notes: as for B2
Take B3: the “CD28 scFv signal in presence of CD28” value in assay [2] was found to be 0.131. The “CD28 scFv signal” value in assay [3] was determined as 0.739.

B4: Phage-165 (peptide, not shown: large carriers)
peptide: MDWCPFYLWDECFL
notes: as for B2
For the molecule B4, the “CD28 scFv signal in presence of CD28” value in assay [2] is 0.141. Also, the “CD28 scFv signal” value in assay [3] was determined as 1.02.

B5: Phage-155 (peptide, not shown: large carriers)
peptide: MHWCPLHLWNECYH
notes: as for B2
For B5, the “CD28 scFv signal in presence of CD28” value in assay [2] came out at 0.113. Further, the “CD28 scFv signal” value in assay [3] came to 1.37.

B6: Phage-171 (peptide, not shown: large carriers)
peptide: MNWCPSHLWHMCYF
modifications: cysteine pairing not given here; also: displayed as fusion to phage pIII, linker and pIII sequence not given here
notes: as for B2
For the molecule B6, in assay [2], the “CD28 scFv signal in presence of CD28” value turned out to be 0.192. In addition, the “CD28 scFv signal” value in assay [3] is 0.702.

B7: Phage-168 (peptide, not shown: large carriers)
peptide: MDWCPKDLWHECFN
modifications: cysteine pairing not given here; also: displayed as fusion to phage pIII, linker and pIII sequence not given here
notes: as for B2
As to B7, the “CD28 scFv signal in presence of CD28” value in assay [2] was 0.1. Also, the “CD28 scFv signal” value in assay [3] came out at 0.762.

B8: Phage-167 (peptide, not shown: large carriers)
peptide: MSWCPQDLWHVCFN
modifications: cysteine pairing not given here; also: displayed as fusion to phage pIII, linker and pIII sequence not given here
notes: as for B2
As to B8, the “CD28 scFv signal in presence of CD28” value in assay [2] turned out to be 0.112. For the same molecule, the “CD28 scFv signal” value in assay [3] turned out to be 0.86.

B9: Phage-163 (peptide, not shown: large carriers)
peptide: MFWCPRYLWHECFN
notes: as for B2
Consider B9, for which, in assay [2], the “CD28 scFv signal in presence of CD28” value was 0.175. Besides, the “CD28 scFv signal” value in assay [3] was found to be 1.08.

B10: Phage-159 (peptide, not shown: large carriers)
peptide: MAWCPMNLWDQCFF
notes: as for B2
As for B10, the “CD28 scFv signal in presence of CD28” value in assay [2] is 0.145. The “CD28 scFv signal” value in assay [3] came out at 1.2.

B11: Phage-224 (peptide)
peptide: MDWCPKDRWNDCYF
Regarding B11, in assay [4], the “CD28 scFv signal” value is 1.09.

B12: Phage-157 (peptide, not shown: large carriers)
peptide: MDWCPRSLWSYCFH
notes: as for B2
Consider B12, for which, in assay [2], the “CD28 scFv signal in presence of CD28” value was determined as 0.152. For the same molecule, the “CD28 scFv signal” value in assay [3] turned out to be 1.33.

B13: Phage-158 (peptide, not shown: large carriers)
peptide: MDWCPRYLWTECFF
notes: as for B2
Take B13: the “CD28 scFv signal in presence of CD28” value in assay [2] was 0.244. In assay [3], the “CD28 scFv signal” value came out at 1.26.

B14: Phage-223 (peptide)
peptide: MDWCPRDRWVDCFF
B14: the “CD28 scFv signal in presence of CD28” value in assay [1] was determined as 0.14. In addition, the “CD28 scFv signal” value in assay [4] came to 1.58.

B15: Phage-162 (peptide, not shown: large carriers)
peptide: MNWCPTDLWHECFN
notes: as for B2
As to B15, the “CD28 scFv signal in presence of CD28” value in assay [2] came to 0.095. The “CD28 scFv signal” value in assay [3] was 1.09.

B16: Phage-160 (peptide, not shown: large carriers)
peptide: MHWCPRALWHECFN
notes: as for B2
Turning to B16, the “CD28 scFv signal in presence of CD28” value in assay [2] turned out to be 0.144. Further, the “CD28 scFv signal” value in assay [3] is 1.18.

B17: Phage-156 (peptide, not shown: large carriers)
peptide: MDWCPKHLWHQCFH
notes: as for B2
For B17, the “CD28 scFv signal in presence of CD28” value in assay [2] is 0.108. For the same molecule, the “CD28 scFv signal” value in assay [3] stood at 1.35.
